Experiments:
[1] = target: DAEFRH-specific monoclonal antibody (mAb) produced according to example 1; test: competition ELISA: soluble peptide vs plate-bound DAEFRH-C-BSA for biotinylated mAb, FIG. 5
[2] = target: DAEFRH-specific monoclonal antibody (mAb) produced according to example 1; test: competition ELISA: soluble peptide vs plate-bound DAEFRH-C-BSA for biotinylated mAb, FIG. 2
[3] = target: DAEFRH-specific monoclonal antibody (mAb) produced according to example 1; test: competition ELISA: soluble peptide vs plate-bound DAEFRH-C-BSA for biotinylated mAb, FIG. 4
[4] = target: DAEFRH-specific monoclonal antibody (mAb) produced according to example 1; test: competition ELISA: soluble peptide vs plate-bound DAEFRH-C-BSA for biotinylated mAb, FIG. 3

| Binder | IC50 [1] [µg/mL] | IC50 [2] [µg/mL] | also measured |
| --- | --- | --- | --- |
| DKELKIC [Peptide 1236 DKELKI] | > 5 |  |  |
| EAEFRGC [Peptide 3006 EAEFRG] |  | < 0.5 |  |
| YAEFRGC [Peptide 3005 YAEFRG] |  | > 0.5 |  |
| EYEFRGC [Peptide 1239 EYEFRG] | > 0.5 |  |  |
| SWEFRTC [Peptide 4002 SWEFRT] |  |  | IC50 [3]: < 0.4 µg/mL |
| SFEFRGC [Peptide 3009 SFEFRG] |  |  | IC50 [4]: < 5 µg/mL |
| DWELRIC [Peptide 3002 DWELRI] |  | > 0.5 |  |
| ELEFRGC [Peptide 3008 ELEFRG] |  |  | IC50 [4]: < 5 µg/mL |
| DRELKIC [Peptide 1237 DRELKI] | > 5 |  |  |
| DKELRIC [Peptide 3001 DKELRI] |  | < 0.5 |  |
